Measurements as given in PMC9887734, “Meeting abstracts from the 10th International Conference on cGMP: Generators, Effectors and Therapeutic Implications” (Journal of Translational Medicine, 2023).

Key:
[1] = target: the molecule itself; test: cryo-EM structure; human cone photoreceptor CNG channel CNGA3/CNGB3 in the apo state
[2] = target: T1, CNGB3 subunit of the human cone photoreceptor CNG channel (human, UniProt Q9NQW8 1-809); test: as above; conditions: both partners purified
T1 construct: CNGB3, human cone photoreceptor cyclic nucleotide-gated channel subunit; One copy stands in the CNGA3/CNGB3 channel
T1 sequence (looked up): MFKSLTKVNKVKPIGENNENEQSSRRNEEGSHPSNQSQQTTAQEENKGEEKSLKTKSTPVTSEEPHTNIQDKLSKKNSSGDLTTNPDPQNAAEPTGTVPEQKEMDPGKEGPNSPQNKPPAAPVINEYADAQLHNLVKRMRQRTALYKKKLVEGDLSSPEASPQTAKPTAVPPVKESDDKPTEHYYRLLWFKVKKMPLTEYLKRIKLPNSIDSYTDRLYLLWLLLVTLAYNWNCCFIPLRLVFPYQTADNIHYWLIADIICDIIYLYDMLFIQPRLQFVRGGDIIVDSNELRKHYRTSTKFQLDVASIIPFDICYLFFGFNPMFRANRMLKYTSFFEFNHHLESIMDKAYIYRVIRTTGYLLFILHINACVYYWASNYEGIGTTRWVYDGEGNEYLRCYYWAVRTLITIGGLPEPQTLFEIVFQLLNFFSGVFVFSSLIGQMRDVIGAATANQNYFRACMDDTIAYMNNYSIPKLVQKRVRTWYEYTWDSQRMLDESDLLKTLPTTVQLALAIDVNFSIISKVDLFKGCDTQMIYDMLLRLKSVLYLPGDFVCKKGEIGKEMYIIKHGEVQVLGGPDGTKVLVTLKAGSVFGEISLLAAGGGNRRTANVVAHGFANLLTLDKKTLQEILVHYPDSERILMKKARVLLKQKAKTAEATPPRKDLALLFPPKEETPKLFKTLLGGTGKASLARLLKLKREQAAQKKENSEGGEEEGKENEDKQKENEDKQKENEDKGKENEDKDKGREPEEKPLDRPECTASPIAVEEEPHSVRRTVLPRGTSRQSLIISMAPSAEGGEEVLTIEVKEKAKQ

stoichiometry N [2]: 3 CNGA3 per CNGB3
B1: CNGA3 subunit of the human cone photoreceptor CNG channel (natural protein, UniProt Q16281 1-694, looked up)
chain: MAKINTQYSHPSRTHLKVKTSDRDLNRAENGLSRAHSSSEETSSVLQPGIAMETRGLADSGQGSFTGQGIARLSRLIFLLRRWAARHVHHQDQGPDSFPDRFRGAELKEVSSQESNAQANVGSQEPADRGRSAWPLAKCNTNTSNNTEEEKKTKKKDAIVVDPSSNLYYRWLTAIALPVFYNWYLLICRACFDELQSEYLMLWLVLDYSADVLYVLDVLVRARTGFLEQGLMVSDTNRLWQHYKTTTQFKLDVLSLVPTDLAYLKVGTNYPEVRFNRLLKFSRLFEFFDRTETRTNYPNMFRIGNLVLYILIIIHWNACIYFAISKFIGFGTDSWVYPNISIPEHGRLSRKYIYSLYWSTLTLTTIGETPPPVKDEEYLFVVVDFLVGVLIFATIVGNVGSMISNMNASRAEFQAKIDSIKQYMQFRKVTKDLETRVIRWFDYLWANKKTVDEKEVLKSLPDKLKAEIAINVHLDTLKKVRIFQDCEAGLLVELVLKLRPTVFSPGDYICKKGDIGKEMYIINEGKLAVVADDGVTQFVVLSDGSYFGEISILNIKGSKSGNRRTANIRSIGYSDLFCLSKDDLMEALTEYPEAKKALEEKGRQILMKDNLIDEELARAGADPKDLEEKVEQLGSSLDTLQTRFARLLAEYNATQMKMKQRLSQLESQVKGGGDKPLADGEVPGDATKTEDKQQ
notes: CNGA3, human cone photoreceptor cyclic nucleotide-gated channel subunit; Three copies stand in the CNGA3/CNGB3 channel whose cryo-EM structure (apo state) is reported
binding result [1]: binds
